# From the supplement of paper PMC9732359
# ± gives the uncertainty stated by the source.
# Assay: protein stability index of a GFP-peptide fusion (yeast GPS) (PSI 1-4); higher = more stable; sorted into four equal gates, so the index is relative within each strain
# In short: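 Yeast carrying a pooled library were grown to mid-log phase in leucine-free medium. Each library plasmid expresses Cherry and has a tiled 17-residue yeast protein peptide fused downstream of GFP. Cells were sorted into four equal gates by GFP/Cherry ratio, and plasmids from each gate were PCR-amplified, Illumina-sequenced and assigned to strains by barcode. Summing, across gates, the read frequency times the gate number gave each peptide's protein stability index.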
Sequence,protein stability index (doa10∆),protein stability index (pdr5∆),protein stability index (san1∆),protein stability index (ubr1∆)
KLNELDELILEAKERYT [NNF1],2.98 ± 0.11,3.17 ± 0.096,3.23 ± 0.058,2.82 ± 0.16
KLNTFNLQTFTHEQWSN [SRP72],3 ± 0.12,2.83 ± 0.078,2.36 ± 0.076,2.78 ± 0.062
KLNVDQFISSRQFEVKQ [POP1],2.99 ± 0.053,3.08 ± 0.055,3.01 ± 0.041,2.97 ± 0.059
KLQLSFVLQMVGKTAQS [SRP72],,,1.42 ± 0.16,
KLSDNISICMILCGIQE [YDL116W/NUP84],2.23 ± 0.074,1.86 ± 0.083,2.62 ± 0.12,2.06 ± 0.11
KLSDSKTSNIESVPIYS [BRR2],2.5 ± 0.054,2.64 ± 0.062,2.33 ± 0.042,2.6 ± 0.054
KLSKEERAARVAAKIAA [RPL5],2.54 ± 0.13,2.93 ± 0.079,2.49 ± 0.2,2.52 ± 0.078
KLSKILRTEYGWDSLAS [SNU114],3.17 ± 0.14,3.17 ± 0.2,3.1 ± 0.21,3.3 ± 0.17
KLVRESELLGGTFKSTL [QCR2],2.53 ± 0.12,2.82 ± 0.1,2.35 ± 0.093,3.18 ± 0.063
KLYFQLFLNTGCLSVLY [SRP68],1.47 ± 0.038,1.19 ± 0.041,1.19 ± 0.1,1.21 ± 0.043
KMIILDKLLKRLKEKGS [ISW2],1.58 ± 0.049,1.32 ± 0.061,1.35 ± 0.12,1.44 ± 0.055
KMVIAELLPHYPFVTND [YJR042W/NUP85],2.83 ± 0.09,2.75 ± 0.092,2.87 ± 0.052,2.99 ± 0.073
KMVKAWNLNQFQIEADF [ASC1],2.58 ± 0.046,2.67 ± 0.053,2.58 ± 0.067,2.55 ± 0.04
KNDSAEVRQETQPKAEA [NUT1],3.35 ± 0.15,3.26 ± 0.11,3.36 ± 0.055,3.38 ± 0.083
KNDSLEKTINDLQRTQT [YIL149C/MLP2],2.97 ± 0.074,3.02 ± 0.063,2.82 ± 0.059,2.89 ± 0.046
KNESATINEMMKHLGRS [FAS2],2.6 ± 0.082,2.87 ± 0.087,2.65 ± 0.062,2.81 ± 0.095
KNGLGLNFSTTAPANTT [MED2],2.16 ± 0.07,2.38 ± 0.047,2.15 ± 0.072,2.06 ± 0.042
KNKPELYQIDYLGTKVE [PRE1],2.82 ± 0.091,2.95 ± 0.1,3.09 ± 0.064,3.16 ± 0.089
KNLERLRGEYNDLQSET [SMC4],3.33 ± 0.2,3.4 ± 0.083,3.25 ± 0.067,2.9 ± 0.06
KNLSLQTGTKPVLKKKA [COR1],2.95 ± 0.07,3.05 ± 0.095,3.09 ± 0.06,2.79 ± 0.076
KNMGLVPMKEENLEESF [SSN2],3.07 ± 0.2,3.38 ± 0.13,2.95 ± 0.17,
KNPLFSYVEPVLVASAK [RPL31A],2.95 ± 0.075,2.57 ± 0.064,2.49 ± 0.066,2.76 ± 0.05
KNQLRDWIRFVSTKTNE [RPL22A],2.3 ± 0.046,2.22 ± 0.047,2.17 ± 0.068,2.61 ± 0.04
KNSDVWFLDHNYIENMN [RPN8],2.68 ± 0.1,2.44 ± 0.094,2.57 ± 0.11,2.41 ± 0.057
KNSSTSNTEPIPRSNRH [MED1],3.1 ± 0.14,3.26 ± 0.12,2.91 ± 0.091,3.18 ± 0.063
KNTIDFERFPSPSTSAN [RPN4],2.87 ± 0.09,2.95 ± 0.064,2.72 ± 0.082,3.03 ± 0.056

Sequence,protein stability index (doa10∆),protein stability index (pdr5∆),protein stability index (san1∆),protein stability index (ubr1∆)
KNTMFEKSDALVGVYRQ [SMC1],3.27 ± 0.18,2.88 ± 0.11,2.7 ± 0.081,2.94 ± 0.23
KNVETLEEKILAKKTHK [SMC4],2.65 ± 0.075,2.94 ± 0.077,2.79 ± 0.053,2.92 ± 0.11
KNVRFRVLQLLAVIMDN [YCG1],1.64 ± 0.057,1.54 ± 0.06,1.24 ± 0.099,1.51 ± 0.043
KPDVTYADVGGLDMQKQ [RPT3],,3.69 ± 0.14,3.47 ± 0.24,3.35 ± 0.21
KPETPKGPIIISKNPSN [SIR2],2.92 ± 0.063,3 ± 0.052,2.67 ± 0.06,2.88 ± 0.046
KPFLKGLVNHRVGVKLK [SMX3],2.76 ± 0.042,2.21 ± 0.041,2.07 ± 0.052,1.78 ± 0.031
KPFRQTKFKVRGSSSLY [RPL38],2.83 ± 0.12,3.33 ± 0.071,3.17 ± 0.09,3 ± 0.085
KPKMLPIPSKPTLFDLA [SRP68],2.48 ± 0.071,2.54 ± 0.072,2.31 ± 0.099,2.53 ± 0.06
KPLGPCDVFWVQKDTAI [POP1],2.85 ± 0.07,3.03 ± 0.069,2.89 ± 0.06,2.96 ± 0.054
KPPSSAFNFSFNTSRNV [YAR002W/NUP60],3.2 ± 0.042,3.18 ± 0.056,3.26 ± 0.045,3.05 ± 0.04
KPTDATGNTTSKSAFSF [YOR098C/NUP1],2.04 ± 0.12,2.57 ± 0.088,2.1 ± 0.12,2.46 ± 0.11
KPVYKGKKLTDEINTAQ [RET1],2.92 ± 0.12,2.99 ± 0.094,2.75 ± 0.084,3.2 ± 0.077
KQANNFLWPFKLSNPSG [RPL7A],2.69 ± 0.13,3.02 ± 0.12,3.09 ± 0.1,2.74 ± 0.11
KQEIREAVELPLVQADL [RPT3],3.2 ± 0.13,2.81 ± 0.22,3.43 ± 0.12,2.96 ± 0.17
KQLIMESQEKYMEPFDL [NSL1],3.29 ± 0.072,3.31 ± 0.054,3.32 ± 0.047,3.28 ± 0.039
KQNEQLHVEQLSGGQKT [SMC3],2.07 ± 0.095,2.71 ± 0.099,2.19 ± 0.1,2.19 ± 0.053
KQQPTMQANKLDSQETP [SWI3],2.95 ± 0.12,2.98 ± 0.073,2.92 ± 0.081,2.95 ± 0.071
KQTDTGITHFRAGMTHE [PRP8],2.36 ± 0.055,2.61 ± 0.047,3.08 ± 0.057,2.94 ± 0.037
KQYLSASFSLKNGDKPH [RPL6A],2.34 ± 0.057,1.93 ± 0.045,2.43 ± 0.058,2.96 ± 0.029
KRDQYLKSASKETAPVI [RPL28],2.7 ± 0.12,2.69 ± 0.12,2.59 ± 0.065,2.43 ± 0.13
KRGEVVKIIRKSETSGR [RPB5],3.04 ± 0.082,3.17 ± 0.057,3.2 ± 0.064,3.05 ± 0.058
KRKTNIIMFVGLQGSGK [SRP54],2.69 ± 0.067,2.78 ± 0.068,3.09 ± 0.06,2.87 ± 0.038
KRNKYAAMLTSENAREI [RRP45],3.04 ± 0.063,3.1 ± 0.063,3.08 ± 0.057,2.96 ± 0.043
KRNSDKVEYKIVHDDPA [ITC1],2.12 ± 0.072,2.02 ± 0.083,1.95 ± 0.13,1.27 ± 0.053
KRPPEIMSTEAHVNKVT [SIR4],2.99 ± 0.19,2.96 ± 0.086,2.92 ± 0.1,2.73 ± 0.12
